Results reported in PMC6546395 (eLife, 2019).

B1: Sli15/Ipl1 core chromosomal passenger complex (complex, S. cerevisiae)
chain 1: MDWAIKAARKKTQRKPGSTRSIIETLDDLNNLTTDAHSEINQRLYESSEWLRNNVYMNTLKYEDKKMEESLISPENTHNKMDVEFPKMKGEYELSNSQNDAAKDVTKTPRNGLHNDKSITPKSLRRKEVTEGMNRFSIHDTNKSPVEPLNSVKVDANESEKSSPWSPYKVEKVLRESSKTSESPINTKRFDNQTWAAKEEMENEPILQALKKAESVKVKPPPNSGIARSQRRSNMFVPLPNKDPLIIQHIPPTKSSGSIPKVRTVKESPIAFKKKSTINSPAIRAVENSDTAGSTKASSVFDRLSSIPTKSFENKISRGNVGHKYSSSSIDLTGSPMKKVSQKFKSINSTDTDMQEALRDIFSVKNKITKNNSPKGKNSRKSSIPRFDKTSLKLTTHKKLAIIAEQKKKSKHSSDVHKTGSRPHSISPTKISVDSSSPSKEVKNYYQSPVRGYLRPTKASISPNKNKNLTTSQTPHRLKIKEKTLRKLSPNIADISKPESRKSKNYRLTNLQLLPPAEAERDDLKKKFDKRLSGIMRSQQEHHRRKQEKQKRMSHLEQDLKKQTSFSNDYKDIRLKESLAPFDNHVRDTINKNTAFSTDNILATINTVDHREIIGNVTPKIASVNDSLPEINTDSEDEASVTLAAWAKSPYLQEQLIRQQDINPQTIFGPIPPLHTDEIFPNPRLNRLKPRQIVPKRS
chain 2: MQRNSLVNIKLNANSPSKKTTTRPNTSRINKPWRISHSPQQRNPNSKIPSPVREKLNRLPVNNKKFLDMESSKIPSPIRKATSSKMIHENKKLPKFKSLSLDDFELGKKLGKGKFGKVYCVRHRSTGYICALKVMEKEEIIKYNLQKQFRREVEIQTSLNHPNLTKSYGYFHDEKRVYLLMEYLVNGEMYKLLRLHGPFNDILASDYIYQIANALDYMHKKNIIHRDIKPENILIGFNNVIKLTDFGWSIINPPENRRKTVCGTIDYLSPEMVESREYDHTIDAWALGVLAFELLTGAPPFEEEMKDTTYKRIAALDIKMPSNISQDAQDLILKLLKYDPKDRMRLGDVKMHPWILRNKPFWENKRL
notes: Sli15 (INCENP ortholog), wild type; open reading frame amplified from yeast genomic DNA; Ipl1 (Aurora B ortholog); also called Sli15-2xStrep/Ipl1; Sli15-2xStrep-HA-6xHis/Ipl1; source: High Five insect cells (baculovirus), purified (Strep-Tactin Superflow agarose); not shown: 2xStrep, C-terminal, kept; HA, C-terminal, kept; 6xHis, C-terminal, kept
B2: dephosphorylated Sli15/Ipl1 (complex, S. cerevisiae)
chain 1: B1 chain 1
chain 2: B1 chain 2
modifications: basal phosphorylation removed with lambda phosphatase | basal phosphorylation removed with lambda phosphatase
notes: Sli15 (INCENP ortholog); open reading frame amplified from yeast genomic DNA; Ipl1 (Aurora B ortholog); also called Sli15/Ipl1 (dp); not shown: 2xStrep, C-terminal, kept; HA, C-terminal, kept; 6xHis, C-terminal, kept

Columns and labels:
[1] = target: T1, COMA complex (Ctf19/Okp1/Mcm21/Ame1) (S. cerevisiae, UniProt P38313 1-324; P53298 1-406; Q02732 1-369; Q06675 1-368); test: cross-linking; Sli15-2xStrep-HA-6xHis/Ipl1 with Ame1/Okp1 and Ctf19/Mcm21 assembled on Strep-Tactin agarose (RT, 1 hr; 50 mM NaH2PO4 pH 8.0, 500 mM NaCl, 5% glycerol), eluted with biotin, re-isolated on Ni-NTA beads; BS3 0.25–0.5 mM, 30°C, 30 min; LC-MS/MS, xQuest; settings: both partners purified
T1 construct: Ame1 (CENP-U ortholog); Okp1 (CENP-Q ortholog); Ctf19 (CENP-P ortholog); open reading frame amplified from yeast genomic DNA; Mcm21 (CENP-O ortholog); The two heterodimers m7 and m12 together; copies: + + +

[2] = target: T1, COMA complex (Ctf19/Okp1/Mcm21/Ame1); test: pull-down; Sli15-2xStrep-HA-6xHis/Ipl1 immobilised on Strep-Tactin Superflow agarose, 2-fold molar excess of the partners; 50 mM NaH2PO4 pH 8, 120 mM NaCl, 5% glycerol, 4°C, 1 hr; SDS-PAGE and Coomassie; settings: both partners purified

T1 sequence (P38313 whole entry, chain 1 of 4): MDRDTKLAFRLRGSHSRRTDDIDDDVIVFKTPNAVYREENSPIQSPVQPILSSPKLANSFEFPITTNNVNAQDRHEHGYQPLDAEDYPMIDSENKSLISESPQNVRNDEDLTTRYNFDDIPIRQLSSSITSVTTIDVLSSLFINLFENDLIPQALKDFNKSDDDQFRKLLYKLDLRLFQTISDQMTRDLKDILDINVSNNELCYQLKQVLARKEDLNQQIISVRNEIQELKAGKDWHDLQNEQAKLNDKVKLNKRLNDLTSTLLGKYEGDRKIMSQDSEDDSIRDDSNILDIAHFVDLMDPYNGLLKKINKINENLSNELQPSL
T1 sequence (P53298 whole entry, chain 2 of 4): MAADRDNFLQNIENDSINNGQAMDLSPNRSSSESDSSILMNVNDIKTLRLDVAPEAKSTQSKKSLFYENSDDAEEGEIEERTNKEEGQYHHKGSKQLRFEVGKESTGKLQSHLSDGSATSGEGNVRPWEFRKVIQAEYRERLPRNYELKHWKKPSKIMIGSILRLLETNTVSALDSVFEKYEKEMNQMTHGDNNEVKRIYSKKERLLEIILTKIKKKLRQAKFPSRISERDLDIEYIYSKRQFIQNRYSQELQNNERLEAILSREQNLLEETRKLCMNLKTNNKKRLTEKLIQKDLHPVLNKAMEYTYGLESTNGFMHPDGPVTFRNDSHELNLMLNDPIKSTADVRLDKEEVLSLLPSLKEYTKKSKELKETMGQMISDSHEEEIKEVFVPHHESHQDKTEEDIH
T1 sequence (Q02732 whole entry, chain 3 of 4): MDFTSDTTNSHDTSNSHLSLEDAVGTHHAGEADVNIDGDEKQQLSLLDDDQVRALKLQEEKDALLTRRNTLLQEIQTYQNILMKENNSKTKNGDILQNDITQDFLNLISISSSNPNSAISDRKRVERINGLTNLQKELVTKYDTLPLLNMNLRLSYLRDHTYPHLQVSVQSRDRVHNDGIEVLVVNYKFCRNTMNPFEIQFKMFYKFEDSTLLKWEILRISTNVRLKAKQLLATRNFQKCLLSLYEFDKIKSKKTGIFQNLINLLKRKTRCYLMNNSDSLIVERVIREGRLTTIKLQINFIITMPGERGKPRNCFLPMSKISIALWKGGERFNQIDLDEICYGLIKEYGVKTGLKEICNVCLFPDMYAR
T1 sequence (Q06675 whole entry, chain 4 of 4): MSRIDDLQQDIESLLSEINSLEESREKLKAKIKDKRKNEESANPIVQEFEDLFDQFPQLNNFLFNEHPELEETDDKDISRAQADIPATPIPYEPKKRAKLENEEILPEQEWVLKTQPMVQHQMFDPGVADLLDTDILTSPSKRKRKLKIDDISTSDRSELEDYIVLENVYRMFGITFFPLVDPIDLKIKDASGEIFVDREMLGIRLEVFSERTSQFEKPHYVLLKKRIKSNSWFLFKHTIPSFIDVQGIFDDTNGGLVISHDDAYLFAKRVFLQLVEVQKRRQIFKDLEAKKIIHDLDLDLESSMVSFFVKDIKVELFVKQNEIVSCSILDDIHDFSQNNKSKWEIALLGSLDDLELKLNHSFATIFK

Binder | binding result [1] | binding result [2]
B1 | binds | –
B2 | – | binds
